The conditions of data set [1]: cited from earlier work.
Data set [2] deals with anti-Ro/SS-A antibodies (human autoimmune serum). The data set is described as follows: ELISA, immobilized peptide reacted with human autoimmune anti-Ro/SS-A serum. It counts as binding. From the text:
Human antisera. Anti-Ro/SS-A sera were selected by the presence of a single precipitin line in Ouchterlony analysis having complete identify with prototypic sera used in studies of Lieu et al. (17). The absence of antibodies to other nuclear antigens such as La/SS-B, U1 -RNP and Sm was also confirmed by ELISA. Monospecific anti-Sm and anti-La/SS-B human autoimmune sera were originally obtained from the laboratory of Dr. E. M. Tan (Scripps Research Institute, La Jolla, Calif.).
The native Ro/SS-A antigen (5 ug/ml) or synthetic peptide (10 ug/ml) in PBS was added to wells of a microtiter plate and incubated 16 hours at 4° C. The plates were washed with PBS-Tween and the remaining sites were coated with 1% BSA for 1 hour. After washing 3 times with PBS-Tween, sera diluted with 1% BSA, 0.5% bovine gamma globulin (BGG) in PBS-Tween were added and incubated for 2 hours. The plates were then washed 3 times with PBS-Tween. Peroxidase conjugated goat-anti-human IgG diluted 1:3000 in PBS-Tween containing 1% BSA and 0.5% BGG was added and incubated for 2 hours at room temperature. The plates were washed in a similar manner. […] The optical density was measured using a Titertek Multiskan brand ELISA plate reader.
(In an ELISA, binding on a coated surface is turned into a signal by an enzyme label.)

Data on 2 molecules can be found in patent US6303339A, “DNA segments encoding autoimmune polypeptide epitopes of Ro/ss-A antigen” (Board of Regents, The University of Texas System, priority 1991, dated 2001).

For “native purified protein: native 60 kD Ro protein purified from the human Wil-2 cell line”, the “isoelectric point measured from the native purified protein” value in data set [1] is 4.67.

B1: ribonuclease A (protein, UniProt P61823 27-150, looked up)
Ribonuclease pancreatic: KETAAAKFERQHMDSSTSAASSSNYCNQMMKSRNLTKDRCKPVNTFVHESLADVQAVCSQKNVACKNGQTNCYQSYSTMSITDCRETGSSKYPNCAYKTTQANKHIIVACEGNPYVPVHFDASV
notes: control polypeptide in ELISA
As to B1, the “binding to anti-Ro/SS-A serum in ELISA (in words)” value in data set [2] is reported as “did not react”.
